{"source": "paper doi:10.1101/2025.10.09.681382", "molecular_target": "Rubisco (Chlamydomonas reinhardtii (endogenous, purified from cells)) (UniProt P00877)", "assay": "fluorescence correlation spectroscopy; 20 nM EPYC1-GFP mixed with 2 μM Rubisco (no phase separation at this concentration); diffusion coefficient of EPYC1-GFP from a single-species fit"}
{"substance": "EPYC1-GFP, unphosphorylated (mock-treated) (natural protein)", "values": [{"measurement": "diffusion coefficient of EPYC1-GFP with Rubisco (60 μm^2/s without Rubisco)", "result": 41, "unit": "μm^2/s"}]}
